Experimental data from patent US20230047413A1 (Janssen / Centocor, published 2023).
Where “and” joins values, the source holds several entries; their conditions need not be identical. Equal values may be shown once.

Assays:
Peptide-8 = target: T1, Peptide-8 (human, phosphothreonine 212 (tau 2N4R numbering); SCBiot and dPEG4 at the N-terminus; amide at the C-terminus); assay: SPR ProteOn, peptide captured, Fab as analyte; n=1
T1 construct: also called pT212-tau peptide (Peptide-8)
Method: (§1) The binding affinity of PT3 Fab towards each of the fourteen tau phosphopeptides shown in Table 6 was assessed by surface plasmon resonance (SPR) using a Bio-Rad ProteOn XPR36. Peptides were synthesized by standard chemical methods (New England Peptide) with short-chain biotin and a PEG4 moiety at the N-terminus. Biotinylated peptide was captured on a neutravidin-coated NLC biosensor chip and PT3 Fab was flowed over the surface to measure kinetic parameters.
(§2) All experiments were performed at 25° C. using phosphate buffered saline, pH 7.4, 0.005% Tween 20 (PBST) as both running buffer and sample dilution buffer. Prior to running samples, the NLC chip was conditioned by running PBST over the chip surface for 1 h. Approximately 5-10 RU of peptide was captured on the chip surface by diluting peptide to 10 ng/mL in PBST and injecting over the flow channels at 30 μL/min for 100 s. Serial dilutions of PT3 Fab (1.1-90 nM) were analyzed and, with the exception of Peptide-8, each concentration was measured in duplicate. After capture of peptides, the antibody titration was injected at 60 μL/min for 3 minutes (association phase), followed by 300 s of buffer only (dissociation phase).
(§3) The data were double referenced by subtraction of the interspot response and the curves generated by the buffer-only injection. The chip surface was regenerated using a single injection of 0.85% phosphoric acid at 30 μL/min for 100 s contact time, followed by four injections of running buffer before the next antibody titration injection. The data processing and kinetic analysis were done using the instrument software. The data were analyzed using a simple Langmuir 1:1 binding model.

Peptide-7 [1] = target: T2, Peptide-7 (human, phosphothreonine 212, phosphoserine 214 (tau 2N4R numbering); SCBiot and dPEG4 at the N-terminus; amide at the C-terminus); assay: SPR ProteOn, peptide captured, Fab as analyte; range of n=2; Peptide-7 (pT212/pS214); upper end of n=2 range
Method: as §1, §2
(§4) The data were double referenced by subtraction of the interspot response and the curves generated by the buffer-only injection. […] The data were analyzed using a simple Langmuir 1:1 binding model.

Peptide-2 [2] = target: T3, Peptide-2 (human, phosphothreonine 212, phosphothreonine 217 (tau 2N4R numbering); short chain biotin (SCBiot) and dPEG4 at the N-terminus; amide at the C-terminus); assay: SPR ProteOn, peptide captured, Fab as analyte; Peptide-2 (pT212/pT217); peptide mapping run of Table 6, n=2
T3 construct: also called pT212/pT217-tau peptide (Peptide-2)
Method: as §1, §2, §4

Peptide-2 [3] = target: T3, Peptide-2; assay: SPR ProteOn, peptide captured, Fab as analyte; range of n=2
Method: A subset of HFA-PT3 monoclonal antibody variants, selected based on biophysical characterization and ELISA binding to PHF, were analyzed by Surface Plasmon Resonance (SPR) with a ProteOn XPR36 for binding to the following phosphopeptides: pT212/pT217-tau peptide (Peptide-2, SEQ ID NO: 48) and pT212-tau peptide (Peptide-8, SEQ ID NO: 54). All experiments were performed at 25° C. using PBST, pH 7.4, (Bio-Rad Cat#176-2720) as both running buffer and sample dilution buffer.
Fab/peptide binding. Biotinylated peptide was captured on a neutravidin-coated NLC biosensor chip pre-conditioned with PBST, and Fab was flowed over the surface to measure kinetic parameters. Approximately 5-10 RU of peptide was captured on the chip surface by diluting peptide to 10 ng/mL in PBST and injecting over the flow channels at 30 μL/min for 100 s. Serial dilutions of PT3 Fab (1.1 nM to 90 nM) were injected at 60 μL/min for 3 minutes (association phase), followed by 300 s of buffer only (dissociation phase).
Data were double referenced by subtraction of the interspot response, and the curves generated by the buffer only injection. The chip surface was regenerated with 0.85% phosphoric acid, followed by PBST injection before the next antibody titration injection. Data processing and analysis were performed using instrument software. The data were fit using a simple Langmuir 1:1 binding model.

Peptide-2 [4] = target: T3, Peptide-2; assay: SPR ProteOn, peptide captured, Fab as analyte; range of n=2; Peptide-2 (pT212/pT217); Table 6 run; lower end of n=2 range
Peptide-5 [5] = target: T4, Peptide-5 (human, phosphoserine 210, phosphoserine 214, phosphothreonine 217 (tau 2N4R numbering); SCBiot and dPEG4 at the N-terminus; amide at the C-terminus); assay: SPR ProteOn, peptide captured, Fab as analyte; Peptide-5, phosphorylated at 210/214/217
Method: as §1, §2, §4

Peptide-7 [6] = target: T2, Peptide-7; assay: SPR ProteOn, peptide captured, Fab as analyte; range of n=2; upper end of n=2 range
Method: as §1, §2, §3

Peptide-2 [7] = target: T3, Peptide-2; assay: as above
Method: as §1, §2, §3

Peptide-5 [8] = target: T4, Peptide-5; assay: as above
Method: as §1, §2, §3

Peptide-4 = Peptide-4 (human, phosphoserine 210, phosphothreonine 217 (tau 2N4R numbering); SCBiot and dPEG4 at the N-terminus; amide at the C-terminus); assay: as above
Method: as §1, §2, §3

Peptide-5 [9] = target: T4, Peptide-5; assay: SPR ProteOn, peptide captured, Fab as analyte; range of n=2; Peptide-5 (pS210/pS214/pT217); upper end of n=2 range
Method: as §1, §2, §4

T2 sequence (peptide, as listed by the source): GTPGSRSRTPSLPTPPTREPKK

B1: PT3 Fab (B187) (Fab, V domains shown)
VH: EVKLVESGGDLVKPGGSLKLSCAASGFTFSSYAMSWVRQNPEKRLEWVASISKGGNTYYPNSVKGRFTISRDNARNILYLQMSSLRSEDTALYYCARGWGDYGWFAYWGQVTLVTVSA
VL: DIKMTQSPSSMYASLGERVTITCKASQDINRYLNWFQQKPGKSPKTLIYRANRLLDGVPSRFSGSGSGQDYSLTISSLDYEDMGIYYCLQYDEFPLTFGDGTKLELK
notes: Chimeric Fab: mouse variable regions, human IgG1/kappa constant region, 6xHis tag at the C-terminus of the heavy chain; also called mouse parental Fab of PT3
Peptide-8
  Kd: 23 nM
  koff: 0.00646 s⁻¹
  kon: 281000 M⁻¹ s⁻¹
Peptide-7 [1]
  Kd: 11.3 to 15.7 nM
Peptide-2 [2]
  Kd: 0.27 nM
Peptide-2 [3]
  koff: 4.93e-05 s⁻¹ and 7.84e-05 s⁻¹
  kon: 491000 M⁻¹ s⁻¹ and 1.06e+06 M⁻¹ s⁻¹
Peptide-2 [4]
  Kd: 0.09 to 0.45 nM
Peptide-5 [5]
  Kd: 8.7 nM
Peptide-7 [6]
  koff: 0.0056 s⁻¹
  kon: 487000 M⁻¹ s⁻¹
Peptide-2 [7]
  koff: 0.000245 s⁻¹
  kon: 982000 M⁻¹ s⁻¹
Peptide-5 [8]
  koff: 0.00598 s⁻¹
  kon: 863000 M⁻¹ s⁻¹
Peptide-4
  koff: 0.00627 s⁻¹
  kon: 968000 M⁻¹ s⁻¹
Peptide-5 [9]
  Kd: 6.6 to 10.8 nM
